Assay results from patent US20260250425A1 (UNIVERSITY OF CHICAGO, published 2026).
Substitutions are numbered along the chain they refer to. Numbers in names are those of the source.

T1: human FcγRIIA (R131) (human, UniProt P12318 34-218, limits assumed)
T1 construct: Recombinant His-tagged protein
T1 sequence (looked up): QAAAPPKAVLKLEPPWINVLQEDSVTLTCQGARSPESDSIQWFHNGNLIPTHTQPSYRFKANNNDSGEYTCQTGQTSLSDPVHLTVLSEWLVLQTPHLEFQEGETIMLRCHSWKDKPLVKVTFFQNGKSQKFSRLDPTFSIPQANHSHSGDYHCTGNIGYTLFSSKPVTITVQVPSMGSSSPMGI

T2: human FcγRIIA (H131) (human, UniProt P12318 34-218, limits assumed)
T2 construct: Recombinant His-tagged protein
T2 sequence (looked up): T1 sequence (looked up) with R134H

T3: human FcγRIIB (human, UniProt P31994 43-217, limits assumed)
T3 construct: Recombinant His-tagged protein; also called FcγRIIB (human)
T3 sequence (looked up): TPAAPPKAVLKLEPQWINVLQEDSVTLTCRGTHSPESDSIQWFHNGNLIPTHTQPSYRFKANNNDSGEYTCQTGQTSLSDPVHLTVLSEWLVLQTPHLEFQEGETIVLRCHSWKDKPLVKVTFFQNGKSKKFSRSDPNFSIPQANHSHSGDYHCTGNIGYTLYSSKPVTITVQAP

T4: mouse FcγRI (mouse, UniProt P26151 25-297)
T4 construct: Recombinant His-tagged protein
T4 sequence (looked up): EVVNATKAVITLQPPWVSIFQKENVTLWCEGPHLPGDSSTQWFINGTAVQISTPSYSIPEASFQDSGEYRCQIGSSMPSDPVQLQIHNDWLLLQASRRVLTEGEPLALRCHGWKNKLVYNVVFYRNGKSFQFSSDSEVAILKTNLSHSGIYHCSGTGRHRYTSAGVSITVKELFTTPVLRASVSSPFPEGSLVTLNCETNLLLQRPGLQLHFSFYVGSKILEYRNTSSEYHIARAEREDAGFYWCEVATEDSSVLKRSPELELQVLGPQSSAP

T5: mouse FcγRIIB (mouse, UniProt P08101 30-210, limits assumed)
T5 construct: Recombinant His-tagged protein
T5 sequence (looked up): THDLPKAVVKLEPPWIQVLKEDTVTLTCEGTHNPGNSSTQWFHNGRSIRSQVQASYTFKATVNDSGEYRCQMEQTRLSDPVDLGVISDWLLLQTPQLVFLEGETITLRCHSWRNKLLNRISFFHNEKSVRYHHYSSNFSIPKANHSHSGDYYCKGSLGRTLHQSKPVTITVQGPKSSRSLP

T6: mouse FcγRIII (mouse, UniProt P08508 31-215)
T6 construct: Recombinant His-tagged protein
T6 sequence (looked up): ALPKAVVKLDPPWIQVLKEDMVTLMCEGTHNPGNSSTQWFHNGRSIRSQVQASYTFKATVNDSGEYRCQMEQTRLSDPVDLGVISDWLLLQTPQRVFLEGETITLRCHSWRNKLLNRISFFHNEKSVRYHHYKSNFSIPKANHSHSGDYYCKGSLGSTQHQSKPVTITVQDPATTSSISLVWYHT

T7: mouse FcγRIV (mouse, UniProt A0A0B4J1G0 21-203)
T7 construct: Recombinant His-tagged protein
T7 sequence: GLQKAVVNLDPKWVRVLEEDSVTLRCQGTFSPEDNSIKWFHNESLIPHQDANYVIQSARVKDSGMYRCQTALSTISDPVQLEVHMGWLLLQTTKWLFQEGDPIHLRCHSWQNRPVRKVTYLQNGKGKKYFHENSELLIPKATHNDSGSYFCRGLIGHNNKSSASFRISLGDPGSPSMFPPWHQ

B1: 3F6-hIgG1HEK (antibody)
heavy: not shown
light: DIVLTQSPDSLAVSLGERATINCRASESVEYSGASLMQWYQHKPGQPPKLLIYAASNRESGVPDRFSGSGSGTDFTLTISPVQAEDVAMYFCQQSRKVPSTFGGGTKLEIKRTVAAPSVFIFPPSDEQLKSGTASVVCLLNNFYPREAKVQWKVDNALQSGNSQESVTEQDSKDSTYSLSSTLTLSKADYEKHKVYACEVTHQGLSSPVTKSFNRGEC
modifications: Asn297 N-glycans as made by HEK-293F cells (more G1F, G2F and sialic acid than the CHO product)
notes: also called 3F6-hIgG1HEK WT; 3F6-IgG1
B2: 3F6-hIgG1HEK-deSia (antibody)
heavy: not shown
light: B1 light
modifications: Asn297 N-glycans de-sialylated with neuraminidase
notes: See m5
B3: 3F6-hIgG1HEK-G1F (antibody)
heavy: not shown
light: B1 light
modifications: Asn297 N-glycan remodelled chemoenzymatically to homogeneous G1F
notes: See m5; also called 3F6-hIgGHEK-G1F
B4: 3F6-hIgG1HEK-deGal (antibody)
heavy: not shown
light: B1 light
modifications: Asn297 N-glycans de-galactosylated with β1-4-galactosidase
notes: See m5
B5: 3F6-hIgG1CHO (antibody)
heavy: not shown
light: B1 light
modifications: Asn297 N-glycans as made by CHO-DG44 cells (mainly G0F, less G1F and G2F)
notes: Humanized 3F6 human IgG1 produced in CHO-DG44 cells; also called 3F6-hIgG1CHO WT; CHO-produced antibody
B6: 3F6-hIgG1CHO-Gal (antibody)
heavy: not shown
light: B1 light
modifications: Asn297 N-glycans enzymatically galactosylated (β1,4GalT)
notes: 3F6-hIgG1CHO after enzymatic galactosylation; also called 3F6-IgG1CHO-Gal
B7: 3F6-hIgG1HEK-G0F (antibody)
heavy: not shown
light: B1 light
modifications: Asn297 N-glycan remodelled chemoenzymatically to homogeneous G0F
notes: See m5; also called 3F6-hIgGHEK-G0F
B8: 3F6-hIgG1CHO-deSia (antibody)
heavy: not shown
light: B1 light
modifications: Asn297 N-glycans de-sialylated with neuraminidase
notes: 3F6-hIgG1CHO after neuraminidase
B9: 3F6-hIgG1CHO-G2F (antibody)
heavy: not shown
light: B1 light
modifications: Asn297 N-glycan remodelled chemoenzymatically to homogeneous G2F
notes: Endo-S2 deglycosylation and EndoS2-D184M transfer of G2F glycan; also called 3F6-hIgGCHO-G2F
B10: 3F6-hIgG1HEK-G2F (antibody)
heavy: not shown
light: B1 light
modifications: Asn297 N-glycan remodelled chemoenzymatically to homogeneous G2F
notes: See m5; also called 3F6-hIgGHEK-G2F
B11: 3F6-hIgG1HEK-afu (antibody)
heavy: not shown
light: B1 light
modifications: Asn297 N-glycans low in fucose and galactose (HEK-293F cells grown with kifunensine)
notes: See m5; also called afucosylated 3F6-hIgG1HEK
B12: 3F6-hIgG1HEK-KA (antibody, name in EU numbering)
heavy: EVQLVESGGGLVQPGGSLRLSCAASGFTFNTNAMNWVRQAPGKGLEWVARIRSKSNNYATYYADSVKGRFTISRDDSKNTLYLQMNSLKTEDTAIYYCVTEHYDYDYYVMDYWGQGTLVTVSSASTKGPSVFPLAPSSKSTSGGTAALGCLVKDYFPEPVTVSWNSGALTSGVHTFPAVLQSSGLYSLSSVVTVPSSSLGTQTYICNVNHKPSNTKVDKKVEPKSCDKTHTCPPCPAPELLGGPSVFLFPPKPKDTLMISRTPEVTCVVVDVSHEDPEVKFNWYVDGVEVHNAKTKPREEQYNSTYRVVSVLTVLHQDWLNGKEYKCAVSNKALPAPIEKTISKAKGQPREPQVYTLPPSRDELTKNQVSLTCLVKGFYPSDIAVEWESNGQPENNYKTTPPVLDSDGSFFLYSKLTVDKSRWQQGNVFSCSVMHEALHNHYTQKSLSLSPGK
light: B1 light
notes: also called KA variant

Each binder was assayed against T8, human C1q (human, UniProt P02745 23-245; P02746 28-253; P02747 29-245) (assay: ELISA, human C1q-coated plate).
T8 construct: Purified human C1q (CompTech); also called hc1q; hC1q
T8 sequence (P02745 23-245 limits assumed, chain 1 of 3): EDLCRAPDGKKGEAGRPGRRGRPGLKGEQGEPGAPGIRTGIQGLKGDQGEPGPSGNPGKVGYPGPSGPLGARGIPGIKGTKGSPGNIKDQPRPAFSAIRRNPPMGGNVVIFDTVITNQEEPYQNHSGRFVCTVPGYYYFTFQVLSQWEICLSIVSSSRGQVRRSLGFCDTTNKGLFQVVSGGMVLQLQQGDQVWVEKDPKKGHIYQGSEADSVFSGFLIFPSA
T8 sequence (P02746 28-253 limits assumed, chain 2 of 3): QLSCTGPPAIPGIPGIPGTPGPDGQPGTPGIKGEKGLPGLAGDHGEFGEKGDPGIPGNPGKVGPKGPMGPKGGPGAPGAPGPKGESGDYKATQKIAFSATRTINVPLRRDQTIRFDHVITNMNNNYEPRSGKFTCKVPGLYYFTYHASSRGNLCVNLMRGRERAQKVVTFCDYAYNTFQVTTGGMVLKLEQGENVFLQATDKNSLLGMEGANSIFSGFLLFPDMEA
T8 sequence (P02747 29-245 limits assumed, chain 3 of 3): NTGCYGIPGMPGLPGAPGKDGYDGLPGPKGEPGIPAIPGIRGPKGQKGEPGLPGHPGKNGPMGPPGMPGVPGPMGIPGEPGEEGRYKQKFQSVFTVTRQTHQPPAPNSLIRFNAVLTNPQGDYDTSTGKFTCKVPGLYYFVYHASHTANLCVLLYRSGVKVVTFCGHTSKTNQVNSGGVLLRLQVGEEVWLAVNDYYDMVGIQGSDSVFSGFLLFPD

Q: Which Ka does the source give for B1 here?
A: 1.87e+07 M⁻¹

Q: Which Ka does the source give for B2 here?
A: 3.37e+07 M⁻¹

Q: With B3 as the binder, how does the Ka read?
A: 3.83e+07 M⁻¹

Q: Which Ka does the source give for B4 here?
A: 4e+06 M⁻¹

Q: With B5 as the binder, how does the Ka read?
A: 4.91e+06 M⁻¹

Q: With B6 as the binder, how does the Ka read?
A: 2.17e+07 M⁻¹

Q: How did the Ka turn out when B7 was run?
A: 6.94e+06 M⁻¹

Q: B8 was tested. Which Ka did it give?
A: 5.5e+06 M⁻¹

Q: For B9, which Ka is on record?
A: 5.11e+07 M⁻¹

Q: With B10 as the binder, how does the Ka read?
A: 5.5e+07 M⁻¹

Molecular target: T8, human C1q
Test: ELISA, human C1q-coated plate
Remark: another data set of the same source

Q: How did the Ka turn out when B1 was run?
A: 1.87e+07 M⁻¹

Q: For B11, which Ka is on record?
A: 5.97e+06 M⁻¹

Q: How did the Ka turn out when B5 was run?
A: 4.91e+06 M⁻¹

Q: Which Ka does the source give for B12 here?
A: 1.37e+06 M⁻¹

These binders were tested against T9, human FcγRIA (human, UniProt P12314 16-288, limits assumed) (assay: ELISA, His-tagged FcγR captured by anti-His antibody).
T9 construct: Recombinant His-tagged protein
T9 sequence (P12314 16-288 limits assumed): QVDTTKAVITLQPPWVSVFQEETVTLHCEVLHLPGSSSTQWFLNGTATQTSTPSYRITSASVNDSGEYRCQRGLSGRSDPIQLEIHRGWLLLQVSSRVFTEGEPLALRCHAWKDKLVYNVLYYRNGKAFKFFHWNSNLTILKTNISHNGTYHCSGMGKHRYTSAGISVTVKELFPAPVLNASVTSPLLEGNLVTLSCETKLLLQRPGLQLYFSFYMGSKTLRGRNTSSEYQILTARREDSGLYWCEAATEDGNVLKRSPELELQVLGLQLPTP

Q: For B1, which Ka is on record?
A: 7.88e+08 M⁻¹

Q: How did the Ka turn out when B11 was run?
A: 5.83e+08 M⁻¹

Q: How did the Ka turn out when B5 was run?
A: 7.66e+08 M⁻¹

Q: How did the Ka turn out when B12 was run?
A: 7.86e+08 M⁻¹

Each binder was assayed against T1, human FcγRIIA (R131) in the same assay as above.

Q: For B1, which Ka is on record?
A: 1.53e+06 M⁻¹

Q: How did the Ka turn out when B11 was run?
A: 1.82e+06 M⁻¹

Q: Which Ka does the source give for B5 here?
A: 2.36e+06 M⁻¹

Q: B12 was tested. Which Ka did it give?
A: 1.81e+06 M⁻¹

Each binder was assayed against T2, human FcγRIIA (H131) in the same assay as above.

Q: Which Ka does the source give for B1 here?
A: 1.13e+06 M⁻¹

Q: How did the Ka turn out when B11 was run?
A: 1.51e+06 M⁻¹

Q: With B5 as the binder, how does the Ka read?
A: 1.75e+06 M⁻¹

Q: Which Ka does the source give for B12 here?
A: 1.23e+06 M⁻¹

Each binder was assayed against T3, human FcγRIIB in the same assay as above.

Q: Which Ka does the source give for B1 here?
A: 925000 M⁻¹

Q: With B11 as the binder, how does the Ka read?
A: 179000 M⁻¹

Q: With B5 as the binder, how does the Ka read?
A: 1.65e+06 M⁻¹

Q: B12 was tested. Which Ka did it give?
A: 1.18e+06 M⁻¹

These binders were tested against T10, human FcγRIIIA (V158) (human, UniProt P08637 17-208) in the same assay as above.
T10 construct: Recombinant His-tagged protein
T10 sequence (P08637 17-208 F176V limits assumed): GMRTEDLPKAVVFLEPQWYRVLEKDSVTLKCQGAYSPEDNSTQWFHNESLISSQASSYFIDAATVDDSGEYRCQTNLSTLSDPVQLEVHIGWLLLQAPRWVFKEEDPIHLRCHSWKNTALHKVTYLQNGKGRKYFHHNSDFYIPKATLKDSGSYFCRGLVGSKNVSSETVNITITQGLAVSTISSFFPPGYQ

Q: For B1, which Ka is on record?
A: 2.31e+07 M⁻¹

Q: How did the Ka turn out when B11 was run?
A: 5.63e+07 M⁻¹

Q: B5 was tested. Which Ka did it give?
A: 2.75e+07 M⁻¹

Q: B12 was tested. Which Ka did it give?
A: 1.4e+07 M⁻¹

These binders were tested against T11, human FcγRIIIA (F158) (human, UniProt P08637 17-208) in the same assay as above.
T11 construct: Recombinant His-tagged protein
T11 sequence (P08637 17-208 limits assumed): as the sequence (P08637 17-208 F176V limits assumed) above, with V160F counted along it

Q: How did the Ka turn out when B1 was run?
A: 1.97e+06 M⁻¹

Q: B11 was tested. Which Ka did it give?
A: 9.2e+06 M⁻¹

Q: Which Ka does the source give for B5 here?
A: 3.09e+06 M⁻¹

Q: Which Ka does the source give for B12 here?
A: 1.51e+06 M⁻¹

Each binder was assayed against T4, mouse FcγRI in the same assay as above.

Q: With B1 as the binder, how does the Ka read?
A: 1.84e+08 M⁻¹

Q: How did the Ka turn out when B11 was run?
A: 9.2e+07 M⁻¹

Q: How did the Ka turn out when B5 was run?
A: 1.77e+08 M⁻¹

Q: With B12 as the binder, how does the Ka read?
A: 3.97e+08 M⁻¹

The binders below were run against T5, mouse FcγRIIB in the same assay as above.

Q: With B1 as the binder, how does the Ka read?
A: 1.61e+06 M⁻¹

Q: How did the Ka turn out when B11 was run?
A: 1.62e+06 M⁻¹

Q: With B5 as the binder, how does the Ka read?
A: 1.53e+06 M⁻¹

Q: With B12 as the binder, how does the Ka read?
A: 3.35e+06 M⁻¹

Each binder was assayed against T6, mouse FcγRIII in the same assay as above.

Q: Which Ka does the source give for B1 here?
A: 1.69e+06 M⁻¹

Q: For B11, which Ka is on record?
A: 2.3e+06 M⁻¹

Q: Which Ka does the source give for B5 here?
A: 1.49e+06 M⁻¹

Q: B12 was tested. Which Ka did it give?
A: 2.96e+06 M⁻¹

These binders were tested against T7, mouse FcγRIV in the same assay as above.

Q: B1 was tested. Which Ka did it give?
A: 1.35e+08 M⁻¹

Q: For B11, which Ka is on record?
A: 3.19e+08 M⁻¹

Q: With B5 as the binder, how does the Ka read?
A: 1.15e+08 M⁻¹

Q: B12 was tested. Which Ka did it give?
A: 2.66e+08 M⁻¹

Each binder was assayed against T12, mouse C1q (mouse, UniProt P98086 23-245; P14106 26-253; Q02105 30-246) (assay: ELISA, plate coated with BALB/c mouse serum (mouse C1q)).
T12 construct: Plates were coated with BALB/c mouse serum as the source of mouse C1q; also called mc1q
T12 sequence (P98086 23-245 limits assumed, chain 1 of 3): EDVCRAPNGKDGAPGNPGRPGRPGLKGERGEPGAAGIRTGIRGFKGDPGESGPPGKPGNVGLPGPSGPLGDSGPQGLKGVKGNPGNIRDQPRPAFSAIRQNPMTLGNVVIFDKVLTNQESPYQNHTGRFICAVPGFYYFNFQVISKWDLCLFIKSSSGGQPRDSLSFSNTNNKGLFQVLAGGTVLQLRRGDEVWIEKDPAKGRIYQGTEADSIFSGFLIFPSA
T12 sequence (P14106 26-253 limits assumed, chain 2 of 3): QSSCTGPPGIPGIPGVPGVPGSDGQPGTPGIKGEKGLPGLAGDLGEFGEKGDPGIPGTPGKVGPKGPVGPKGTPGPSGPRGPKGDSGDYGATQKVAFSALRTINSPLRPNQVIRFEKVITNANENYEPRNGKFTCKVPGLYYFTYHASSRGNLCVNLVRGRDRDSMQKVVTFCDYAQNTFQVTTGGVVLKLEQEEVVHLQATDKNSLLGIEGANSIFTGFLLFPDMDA
T12 sequence (Q02105 30-246 limits assumed, chain 3 of 3): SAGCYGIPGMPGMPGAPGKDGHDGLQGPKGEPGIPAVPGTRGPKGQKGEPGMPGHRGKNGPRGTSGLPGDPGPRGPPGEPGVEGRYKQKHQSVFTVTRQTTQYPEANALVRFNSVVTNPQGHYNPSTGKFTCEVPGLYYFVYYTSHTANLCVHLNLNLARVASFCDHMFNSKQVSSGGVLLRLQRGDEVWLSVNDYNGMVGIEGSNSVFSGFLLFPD

Q: For B1, which Ka is on record?
A: 6.08e+07 M⁻¹

Q: Which Ka does the source give for B5 here?
A: 8.87e+06 M⁻¹

Molecular target: T12, mouse C1q
Test: as above
Remark: another data set of the same source

Q: With B1 as the binder, how does the Ka read?
A: 6.08e+07 M⁻¹

Q: For B11, which Ka is on record?
A: 2.79e+06 M⁻¹

Q: Which Ka does the source give for B5 here?
A: 8.87e+06 M⁻¹

Q: With B12 as the binder, how does the Ka read?
A: 1.34e+06 M⁻¹
